Measurements reported in patent US20170355757A1 (Regeneron, published 2017).

B1: H4H12176P2 (antibody, human IgG4, V domains shown)
VH: EVQLVESGGGLVQPGGSLRLSCAASGFHSNRYWMDWVRQAPGKGLEWVANIKQDGSEENYVDSVKGRFTISRDNAKNSLYLQMNSLRAEDTAVYYCARDRSTSWVPYWFFDLWGRGTLVTVSS
VL: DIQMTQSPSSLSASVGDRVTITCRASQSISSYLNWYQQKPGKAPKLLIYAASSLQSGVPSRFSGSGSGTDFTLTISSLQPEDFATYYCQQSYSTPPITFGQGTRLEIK
notes: H4H: human IgG4 Fc with S108P hinge mutation
B2: H4H12169P (antibody, human IgG4, V domains shown)
VH: EVQLVESGGGLAQPGGSLRLSCAASGFTFRSYAMSWVRQAPGKGPEWVSGIGGNGVTTYYADSVKGRFTISRDNSKNTLFLQMNSLRAEDTAVYYCVQGGLGGYFTGYWGQGTLVTVSS
VL: DIQMTQSPSSLSASVGDRVTITCRASQSISTYLNWYQQNPGKAPKLLIFDASSLQSGVPSRFSGSGSGTDFTLTIRGLQPEDFATYYCQQSYSAPLTFGGGTKVEIK
notes: as for B1

Key:
human C5 [1] = biological target: T1, human C5 (human, UniProt P01031 19-1676); assay: SPR (Biacore), mAb captured, dissociation of human C5 at pH7.4 vs pH6.0, 37°C
T1 construct: native C5 purified from plasma (EMD) in the Biacore and Octet assays, C5 of normal human serum in the CDC and hemolysis assays; two chains (alpha and beta); also called hC5; complement factor 5
Procedure: Effect of pH on the rate of dissociation of recombinant human C5 bound to purified anti-C5 monoclonal antibodies was determined using a real-time surface plasmon resonance biosensor using a Biacore T200 instrument. The Biacore sensor surface was first derivatized by amine coupling with a monoclonal mouse anti-human Fc antibody (GE, # BR-1008-39) to capture anti-C5 monoclonal antibodies expressed with human IgG4 Fc. All Biacore binding studies were performed using two running buffers PBS-T, pH7.4 (0.01M Na₂HPO₄/NaH₂PO₄, 0.15M NaCl, 0.05% v/v Tween-20, adjusted to pH7.4) and PBS-T, pH6.0 (0.01M Na₂HPO₄/NaH₂PO₄, 0.15M NaCl, 0.05% v/v Tween-20, adjusted to pH6.0). […] Binding dissociative half-lives (t %) were calculated from kd as: […]

human C5 R885H-mmh = human C5 R885H-mmh (human, UniProt P01031 19-1676); assay: cell-based or functional assay
human C5 R885C-mmh = human C5 R885C-mmh (human, UniProt P01031 19-1676); assay: cell-based or functional assay
human C5 [2] = biological target: T1, human C5; assay: cell-based or functional assay
African green monkey C5 [3] = biological target: T2, African green monkey C5 (African green monkey); assay: cell-based or functional assay
monkey C5-mmh [4] = biological target: T3, monkey C5-mmh (monkey, UniProt P01031 19-1676 (human entry), limits assumed); assay: SPR (Biacore), mAb captured, dissociation of monkey C5 at pH7.4 vs pH6.0, 25°C
T3 construct: recombinant, with C-terminal myc-myc-hexahistidine tag
T3 chain: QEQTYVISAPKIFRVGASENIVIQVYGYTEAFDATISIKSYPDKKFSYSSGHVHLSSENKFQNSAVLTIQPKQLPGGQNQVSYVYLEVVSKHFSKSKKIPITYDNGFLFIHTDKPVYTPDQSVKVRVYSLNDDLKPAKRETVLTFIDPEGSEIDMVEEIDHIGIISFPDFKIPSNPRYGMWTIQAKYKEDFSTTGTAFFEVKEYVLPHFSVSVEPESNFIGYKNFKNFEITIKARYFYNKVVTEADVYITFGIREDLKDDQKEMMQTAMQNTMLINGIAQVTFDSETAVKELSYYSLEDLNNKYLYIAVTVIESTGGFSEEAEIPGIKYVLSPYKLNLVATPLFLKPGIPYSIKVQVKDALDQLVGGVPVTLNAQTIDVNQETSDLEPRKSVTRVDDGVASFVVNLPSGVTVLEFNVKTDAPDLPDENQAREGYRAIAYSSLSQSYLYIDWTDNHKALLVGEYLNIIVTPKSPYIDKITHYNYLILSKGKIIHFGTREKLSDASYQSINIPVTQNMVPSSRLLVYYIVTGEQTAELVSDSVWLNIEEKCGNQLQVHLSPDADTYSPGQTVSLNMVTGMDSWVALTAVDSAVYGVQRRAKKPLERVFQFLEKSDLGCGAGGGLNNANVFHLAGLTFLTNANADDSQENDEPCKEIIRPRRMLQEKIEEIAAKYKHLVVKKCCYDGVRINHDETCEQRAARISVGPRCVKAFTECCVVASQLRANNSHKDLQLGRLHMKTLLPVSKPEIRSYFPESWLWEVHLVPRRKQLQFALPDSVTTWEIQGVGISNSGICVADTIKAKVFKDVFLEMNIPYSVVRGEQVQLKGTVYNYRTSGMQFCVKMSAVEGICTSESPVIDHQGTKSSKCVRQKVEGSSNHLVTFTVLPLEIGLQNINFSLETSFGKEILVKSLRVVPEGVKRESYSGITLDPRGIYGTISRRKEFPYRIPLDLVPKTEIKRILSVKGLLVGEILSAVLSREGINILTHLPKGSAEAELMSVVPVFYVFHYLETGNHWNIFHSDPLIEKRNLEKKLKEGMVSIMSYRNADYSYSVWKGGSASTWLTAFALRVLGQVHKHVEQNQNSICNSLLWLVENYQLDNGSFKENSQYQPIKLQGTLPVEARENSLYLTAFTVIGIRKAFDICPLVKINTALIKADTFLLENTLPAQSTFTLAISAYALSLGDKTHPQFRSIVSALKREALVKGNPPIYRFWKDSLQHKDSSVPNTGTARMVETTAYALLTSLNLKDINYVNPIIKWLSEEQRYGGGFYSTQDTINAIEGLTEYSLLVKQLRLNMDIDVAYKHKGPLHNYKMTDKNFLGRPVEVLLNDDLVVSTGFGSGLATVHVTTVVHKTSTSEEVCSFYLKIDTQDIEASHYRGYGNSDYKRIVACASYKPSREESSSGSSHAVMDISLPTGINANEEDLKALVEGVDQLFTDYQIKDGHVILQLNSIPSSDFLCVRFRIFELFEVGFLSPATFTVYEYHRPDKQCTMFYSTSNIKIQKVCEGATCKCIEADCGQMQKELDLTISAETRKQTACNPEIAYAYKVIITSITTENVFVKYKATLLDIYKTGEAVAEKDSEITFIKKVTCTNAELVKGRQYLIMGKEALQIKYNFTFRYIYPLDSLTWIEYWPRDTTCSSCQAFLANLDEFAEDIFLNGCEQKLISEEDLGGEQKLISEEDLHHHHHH

Cynomolgus monkey C5 = Cynomolgus monkey C5 (cynomolgus monkey, UniProt A0A2K5U1T1 19-1676); assay: cell-based or functional assay
human C5 [5] = biological target: T1, human C5; assay: cell-based or functional assay; remark: listed apart in the source
African green monkey C5 [6] = biological target: T2, African green monkey C5; assay: cell-based or functional assay; remark: listed apart in the source
monkey C5-mmh [7] = biological target: T3, monkey C5-mmh; assay: SPR (Biacore), mAb captured, dissociation of monkey C5 at pH7.4 vs pH6.0, 37°C

| Binder | t½ Ratio pH7.4/pH6.0 (human C5 [1]) | IC50, inhibition of CDC of Daudi cells, C5 depleted human serum and 6.6 nM C5 Variant R885H (human C5 R885H-mmh) | IC50, inhibition of CDC of Daudi cells, C5 depleted human serum and 6.6 nM C5 Variant R885C (human C5 R885C-mmh) | IC50, inhibition of CDC of Daudi cells, 1.66% human serum (human C5 [2]) | IC50, inhibition of CDC of Daudi cells, 1.66% African Green monkey serum (African green monkey C5 [3]) | t½ Ratio pH7.4/pH6.0 (monkey C5-mmh [4]) | Cyno AP % Max Inhibition, hemolysis assay, 5% serum (Cynomolgus monkey C5) | Cyno CP % Max Inhibition, hemolysis assay, 5% serum (Cynomolgus monkey C5) | Cyno Serum AP IC50, hemolysis assay, 5% serum (Cynomolgus monkey C5) | Cyno Serum CP IC50, hemolysis assay, 5% serum (Cynomolgus monkey C5) | Human AP % Max Inhibition, hemolysis assay, NHS (human C5 [5]) | Human AP IC50, hemolysis assay, NHS (human C5 [5]) | Human CP % Max Inhibition, hemolysis assay, NHS (human C5 [5]) | Human CP IC50, hemolysis assay, NHS (human C5 [5]) | AGM AP % Max Inhibition, hemolysis assay, 5% serum (African green monkey C5 [6]) | AGM CP % Max Inhibition, hemolysis assay, 5% serum (African green monkey C5 [6]) | AGM Serum AP IC50, hemolysis assay, 5% serum (African green monkey C5 [6]) | AGM Serum CP IC50, hemolysis assay, 5% serum (African green monkey C5 [6]) | t½ Ratio pH7.4/pH6.0 (monkey C5-mmh [7]) |
| --- | --- | --- | --- | --- | --- | --- | --- | --- | --- | --- | --- | --- | --- | --- | --- | --- | --- | --- | --- |
| B1 | ≤ 0.4 | 2.1 nM | 1.3 nM | 2.7 nM | 3.5 nM | ≤ 9.1 | 99.3% | 97.5% | 7.7 nM | 14.7 nM | 69.9% | 16.5 nM | 94.1% | 4.58 nM | 83.2% | 91% | 47.7 nM | 30.4 nM | 2.8 |
| B2 |  | 1.3 nM | 0.67 nM | 1.7 nM | 2.9 nM | 3.4 | 96.3% | 92.8% | 7.95 nM | 19.9 nM | 44.5% | 20 nM | 98.3% | 2.36 nM | 45.7% | 43.3% | 91.5 nM | 34.4 nM | 2 |
